From patent CN114149501A (TENCEL BIOMEDICINE CO LTD, dated 2022)

Tests used:
[1] = biological target: T1, 人源重组C5蛋白 (Sino Biologica, Cat#13416-H18H) (human, UniProt P01031 19-1676); assay: BLI (Octet), antibody on AHC sensor, C5 0.4688-30 nM; run no. 1
T1 construct: also called 人源C5蛋白; 全长C5

[2] = biological target: T1, 人源重组C5蛋白 (Sino Biologica, …); assay: BLI (Octet), antibody on AHC sensor, C5 0.4688-30 nM; run no. 4
[3] = biological target: T1, 人源重组C5蛋白 (Sino Biologica, …); assay: BLI (Octet), antibody on AHC sensor, C5 0.4688-30 nM; run no. 3
[4] = biological target: T1, 人源重组C5蛋白 (Sino Biologica, …); assay: BLI (Octet), antibody on AHC sensor, C5 0.4688-30 nM; run no. 2
[5] = biological target: T1, 人源重组C5蛋白 (Sino Biologica, …); assay: BLI (Octet), antibody on AHC sensor, C5 0.4688-30 nM; run no. 5

T1 sequence (P01031 19-1676 limits assumed): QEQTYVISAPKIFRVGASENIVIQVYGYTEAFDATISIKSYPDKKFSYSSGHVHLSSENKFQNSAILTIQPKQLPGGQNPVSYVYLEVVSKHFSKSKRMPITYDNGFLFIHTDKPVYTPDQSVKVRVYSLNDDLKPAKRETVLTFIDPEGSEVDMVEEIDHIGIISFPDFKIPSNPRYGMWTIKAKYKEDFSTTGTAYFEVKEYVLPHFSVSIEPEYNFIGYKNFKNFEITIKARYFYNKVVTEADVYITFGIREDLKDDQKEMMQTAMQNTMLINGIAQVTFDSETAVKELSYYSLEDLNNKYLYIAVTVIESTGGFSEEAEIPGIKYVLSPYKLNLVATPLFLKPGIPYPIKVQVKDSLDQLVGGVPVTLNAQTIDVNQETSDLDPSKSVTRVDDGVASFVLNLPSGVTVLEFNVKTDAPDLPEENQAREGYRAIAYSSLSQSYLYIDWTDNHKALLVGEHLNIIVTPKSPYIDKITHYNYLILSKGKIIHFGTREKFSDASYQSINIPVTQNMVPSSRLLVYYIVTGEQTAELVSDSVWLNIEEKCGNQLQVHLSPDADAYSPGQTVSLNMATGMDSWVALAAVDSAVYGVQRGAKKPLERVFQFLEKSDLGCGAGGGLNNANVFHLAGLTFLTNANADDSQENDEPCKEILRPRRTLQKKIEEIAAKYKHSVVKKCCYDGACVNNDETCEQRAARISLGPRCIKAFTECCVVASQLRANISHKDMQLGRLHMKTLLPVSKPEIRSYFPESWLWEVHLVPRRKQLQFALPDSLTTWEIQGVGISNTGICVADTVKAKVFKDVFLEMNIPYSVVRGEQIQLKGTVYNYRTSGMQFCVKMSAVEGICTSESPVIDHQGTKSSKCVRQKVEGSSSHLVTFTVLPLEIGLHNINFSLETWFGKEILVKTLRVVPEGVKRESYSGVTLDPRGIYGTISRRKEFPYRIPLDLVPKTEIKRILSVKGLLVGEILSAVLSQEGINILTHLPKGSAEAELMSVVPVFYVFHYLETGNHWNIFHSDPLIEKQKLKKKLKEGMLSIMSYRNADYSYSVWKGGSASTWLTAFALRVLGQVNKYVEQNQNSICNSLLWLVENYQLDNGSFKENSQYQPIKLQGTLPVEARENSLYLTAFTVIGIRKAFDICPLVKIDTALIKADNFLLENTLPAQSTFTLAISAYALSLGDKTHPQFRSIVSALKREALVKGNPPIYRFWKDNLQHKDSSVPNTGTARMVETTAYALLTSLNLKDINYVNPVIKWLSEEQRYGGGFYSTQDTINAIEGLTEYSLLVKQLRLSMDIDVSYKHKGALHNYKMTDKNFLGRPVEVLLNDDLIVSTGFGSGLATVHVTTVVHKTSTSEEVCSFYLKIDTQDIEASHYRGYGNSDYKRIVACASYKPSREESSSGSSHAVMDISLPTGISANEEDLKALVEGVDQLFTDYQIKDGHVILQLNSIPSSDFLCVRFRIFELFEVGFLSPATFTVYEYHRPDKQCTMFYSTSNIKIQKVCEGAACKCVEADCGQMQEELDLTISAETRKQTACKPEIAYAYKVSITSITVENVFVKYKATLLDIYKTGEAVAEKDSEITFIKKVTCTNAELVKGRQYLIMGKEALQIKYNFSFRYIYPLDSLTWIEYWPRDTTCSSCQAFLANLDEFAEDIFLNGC

Kd [1]: 0.366 nM
koff [1]: 0.000151 s⁻¹
kon [1]: 413000 M⁻¹ s⁻¹
Kd [2]: 0.722 nM
koff [2]: 0.000307 s⁻¹
kon [2]: 425000 M⁻¹ s⁻¹
Kd [3]: 0.616 nM
koff [3]: 0.000279 s⁻¹
kon [3]: 452000 M⁻¹ s⁻¹
Kd [4]: 0.614 nM
koff [4]: 0.0003 s⁻¹
kon [4]: 488000 M⁻¹ s⁻¹
Kd [5]: 0.72 nM
koff [5]: 0.000309 s⁻¹
kon [5]: 429000 M⁻¹ s⁻¹
B1: CR3#75/IgG4 (antibody, V domains shown)
VH: EVQLVQSGAEVKKPGATVKISCKVSGYTFTDYYTHWVQQAPGKGLEWMGLVDPEGGETIYAEKFQGRVTITADASTDTAYMELSSLRSEDTAVYYCATGSFLAAPDYWGQGTTVTVSS
VL: not shown
notes: also called 抗C5抗体CR3#75; S125(38#)-3
